Laboratory results: PMC7552008

How the values were obtained:
[1] = target: NS1 RBD H5N1 (Influenza A virus (H5N1; allele A)) (UniProt Q5H7J4); assay: competition EMSA
[2] = target: T1, NS1 RBD H7N1 (Influenza A virus (avian H7N1; allele B)) (UniProt Q1PST0); assay: competition EMSA
T1 sequence: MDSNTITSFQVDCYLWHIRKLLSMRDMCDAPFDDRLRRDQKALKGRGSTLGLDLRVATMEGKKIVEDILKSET

[3] = target: NS1 RBD H5N1 (Influenza A virus (H5N1; allele A)) (UniProt Q5H7J4); assay: EMSA
[4] = test system: NS1 RBD pdmH1N1 (Influenza A virus (pandemic H1N1)); assay: EMSA
[5] = target: NS1 RBD H3N2 (Influenza A virus (H3N2)) (UniProt I6T1Z2); assay: EMSA
[6] = target: wild type H7N1 NS1 RBD (RNA-binding domain of influenza A virus non-structural protein NS1, residues 1-73) (influenza A virus (avian H7N1)); assay: crystal structure

Row | Substance | IC50 [1] | IC50 [2] | other results
1 | GGUAACCACAUGAGUUACAGCAAAAGACCUGUGUAACUCAUGCUGUUACC [DM01-midi] | 2.2 nM | 2.7 nM | 
2 | GGUAACAACUCGUCAUAGGUCACUUGAUUGAAGUAUGACGGGCUGUUACC [DM03-midi] | 1.8 nM | 2.8 nM | 
3 | GGUAACUGUUACAGUUACC / GGUAACUGUUACAGUUACC [AWFC01] | 1 nM |  | Kd [3]: 0.98 nM; Kd [4]: 2.05 nM; Kd [5]: 3.7 nM
4 | AGACAGCAUUAUGCUGUCUUU / AGACAGCAUUAUGCUGUCUUU [ZKO] | 90 nM |  | 
5 | CGCCUGUGUAGAGGUUACAGAGAUGUAACCUCACCACAGGCG [shDM05-GAGA] | 100 nM |  | 
6 | GGUAACUGUAGAGGAUGGAGAGAUCCAUCCUCUACAGUUACC [shDM06-GAGA] | 1.1 nM | 0.85 nM | 
7 | GGUAACUGUAGAGGUUACAGAGAUGUAACCUCUACAGUUACC [shDM02-GAGA] | 0.41 nM | 0.24 nM | 
8 | GGUAACUGUAGAGGUUACAGAGAUGUAACCUCACCAGUUACC [shDM03-GAGA] | 1.2 nM | 0.64 nM | 
9 | wild type H7N1 NS1 RBD (RNA-binding domain of influenza A virus non-structural protein NS1, residues 1-73) (domain or fragment) |  |  | stoichiometry N [6]: 2
